Experiments:
Format in all cases: biochemical
[1] = target: E. coli polysialyltransferase PST-05 (MalE-PST fusion) (Escherichia coli, UniProt Q57269); experiment: Sialyltransferase activity by capillary electrophoresis, apparent Km estimation; settings: CE based assay, 37° C., 50 mM NaHEPES pH 7.5, 10 mM MgCl2, estimated, read-out: apparent Km for GD3-FCHASE
Description: (§1) For production of PST proteins, Cells grown in the presence of IPTG were lysed with an Avestin C5 Emulsiflex cell disrupter (Avestin Ottawa, Ontario) and centrifuged at 1000×g to pellet unbroken cells. MalE-PST fusions were purified using amylose resin as described by the manufacturer (New England Biolabs, Mississauga ON).
(§2) Measurement of sialyltransferase activity—Basic assays were performed at 37° C. in 10-40 μL volumes containing 50 mM NaHEPES pH 7.5, 10 mM MgCl2, 0.1-50 mM CMP-NeuAc, 0.01-5 mM labelled acceptor and various amounts of enzyme. Buffer optimization assays were done with the following buffers: 20 mM citrate-phosphate pH 6.0-8.0, 50 mM Na2PO4 pH 6.5-7.5, 50 mM NaHEPES pH 6.5-8.0, 50 mM TrisHCl pH 7.5-9.0. Metal optimization assays were performed with 10 mM CaCl2, CoCl2, MgCl2, MnCl2, NiCl2, or ZnSO4. For the magnesium titration, endogenous Mg^2+ was removed by addition of EDTA and then dialyzed against 20 mM TrisHCl pH 7.5. Reactions were stopped man equal volume of 50% acetonitrile, 1% sodium dodecylsulphate, 10 mM EDTA. Analysis of actions was done by capillary electrophoresis as previously described. See, e.g., Wakarchuk, W. W. and Cunningham, A. M., Methods Mol. Biol., 213:263-274 (2003)).
(§3) Acceptor synthesis—The GM3/GD3/GT3-FCHASE acceptors were synthesized from Lac-FCHASE on a milligram scale. […]

[2] = target: T1, N. meningitidis polysialyltransferase PST-13 (MalE-PST fusion) (Neisseria meningitidis, UniProt Q51281); experiment: as above; settings: CE based assay, 37° C., 50 mM NaHEPES pH 7.5, 10 mM MgCl2, estimated, read-out: apparent Km for GD3-FCHASE
Description: as §1, §2, §3

[3] = target: T1, N. meningitidis polysialyltransferase PST-13 (MalE-PST fusion); experiment: Acceptor inhibition in kinetic assays; settings: GD3-FCHASE at concentrations over 2 mM
Description: as §2
Some degradation of the starting material was observed and was more significant at high acceptor concentrations (5 mM).

[4] = Activity of self-priming poly-sialyltransferase proteins in E. coli supernatant or pellet, CE assay; set-up: Specific Activity: unit not given here; settings: for Activity / Specific Activity: 24 hour sample; for Percent GM3: FCHASE-GM3 found in the product
Description: The self-priming poly-sialyltransferase proteins were expressed in E. coli cells and growth conditions for optimal protein expression were determined. Similar results were obtained for all three fusions; therefore, results are shown only for the PST-17 fusion. Cells were grown at 20° C., 25° C. and 30° C. for four different time periods. Aliquots of 1.5 mL were harvested, sonicated, and then centrifuged at 10,000×g for 10 mm. Expression of the self-priming poly-sialytransferase proteins increased with time at all […] temperatures.
Enzymatic activities of the self-priming poly-sialytransferase proteins were confirmed. Only the 24 hour samples of FIG. 4 were assayed Assays were done using the following reaction mixture: 0.5 mM FCHASE-Lac, 50 mM NaHEPES pH 7.5, 10 mM MgCl2, 5 mM CMP-NeuAc and 50% volume bacterial supernatant or pellet Reactions were incubated at 37° C. for 10 min and analyzed by capillary electrophoresis. […] For example, in the PST-17 20° C. supernatant, 9% of the substrate is converted into product, but most product is FCHASE-GM3. In contrast, in the PST-21 20° C. supernatant, 7% of the substrate is converted into product with 68% FCHASE-GM3, the remaining products containing longer sialic acid polymers. […] The highest levels of activity are shown in bold font.

[5] = Comparison of PST-16 and PST-17 sialic acid polymerization, CE analysis
Text: The dotted line represents PST-16; the solid line represents PST-17. Arrows indicate the positions of Lactose (lac), GD3, GQ4, and polysialylated products conjugated to more than four sialic acid residues. The amount of polysialic acid relative to all other sialylated species ([…] sialic acid moieties) is about 50% in for each reaction.
Sialylation of the starting material: (▪), +1 NeuAc; ( ? ), +2 NeuAc; (□), +3 NeuAc; ( ? ), 4 NeuAc; ( ? ), >4 NeuAc (▪). 6A is PST-16 with Lac-FCHASE substrate. 6B is PST-17 with Lac-FCHASE substrate. 6C is PST-16 with T-Ag-FCHASE substrate. 6D is PST-17 with T-Ag-FCHASE substrate.
A fusion of Cst-II from C. jejuni OH4384 and the E. coli PST protein (PST-16) was generated and compared to the and N. meningitidis fusion (PST-17). Enzymatic activities of the two fusion proteins were determined and compared. […] See, e.g., FIGS. 5 and 6.

[6] = PST-17 time course on disaccharide acceptor; settings: single addition of enzyme, fixed donor concentration
Description: A comparison of acceptors substrates was performed using Lactose, N-acetyllactosamine, and Gal-β-1,3-GalNAc-α (T-Ag) disaccharide acceptors. […] See, e.g., FIG. 7.

[7] = Poly-sialylation of glycopeptide acceptor by PST17, TLC and CE analysis
Description: The control reaction lacked CMP-sialic acid. […] Disialylated products and products with more than 45 sialic acid residues are indicated with arrows.
The poly-sialyltransferase of PST17 was tested using a partially glycosylated IFNα2b[GalNAc-Gal-NeuAc]-FCHASE glycopeptide. Assay conditions were as follows: 50 mM NaHEPES pH 7.5, 5 mM MnCl2, 5 mM MgCl2, 5 mM CMP-NeuAc, 0.0684 mM IFNα2b[GalNAc-Gal-NeuAc]-FCHASE glycopeptide. Reactions were incubated at 37° C. for 1 hour and 2 hours. […] After 1 hour incubation at 37° C. there is 49.9% conversion to sialylated product and after 2 hours there is 62.5% conversion to sialylated product. […] A glycopeptide acceptor was also a very good acceptor for the PST-17 fusion protein, and long PSA polymers could be seen in CE analysis of those reactions. (Data not shown.) The glyco-peptide acceptors, NH2-VGVT[GalNAc-α-]ETP-COOH (SEQ ID NO:32), were obtained from Sussex Research Laboratories (Ottawa, Canada) and then N-terminally labelled with FCHASE as described for the amino-phenyl glycosides.

[8] = Polysialic acid synthesis, fusion protein versus mixture of unfused parent enzymes; settings: T-Ag-containing glycopeptides
Text: FIG. 9 provides a comparison of polysialic acid synthesis activity using a mixture of unfused Cst-II and PST-13 enzymes or the PST-17 fusion enzyme. The sialic acid acceptor was the glycopeptide interferon α2b-[TAg]-FCHASE. FIG. 9A is the unfused enzyme mixture: CST-81 and PST-13. FIG. 9B is the PST-17 fusion enzyme. Figure legend: IFNα2b-[TAg]-FCHASE (Starting material) (▪); +1 NeuAc ( ? ); +2 NeuAc (□); +3 NeuAc ( ? ); +4 NeuAc ( ? ); >4 NeuAc (▪).
In order to evaluate whether the fusion protein functions more efficiency than the unfused parent enzymes mixed together, we performed experiments where we controlled the stoichiometry of the individual sialyltransferases. The stoichiometry of the mixtures was calculated using gel densitometry. Care was taken not to overload the gels so that the protein bands were not saturated. Gels were stained with SYPRO Orange and protein was quantitated with software provided with Imager system. Reactions contained 4 μM enzyme based on the percentage present in the separate preparations.
See, e.g., FIG. 9. Although less striking, similar results were obtained using a mono-sialylated T-Ag-glycopeptide (S-T-Ag-glycopeptide) acceptor also. See, e.g., FIG. 10.

NeuAc-α2,8-NeuAc-α2,3-Gal-β1,4-Glc-β-FCHASE [GD3-FCHASE]
Km [1]: 145 µM | Km [2]: 120 µM | acceptor inhibition (productivity of the enzyme) [3]: decreased significantly

B1: PST-17: truncated CstII from OH4384 fused to the Neisseria Pst, SEQ ID NO:2 (protein)
chain: MKKVIIAGNGPSLKEIDYSRLPNDFDVFRCNQFYFEDKYYLGKKCKAVFYNPSLFFEQYYTLKHLIQNQEYETELIMCSNYNQAHLENENFVKTFYDYFPDAHLGYDFFKQLKDFNAYFKFHEIYFNQRITSGVYMCAVAIALGYKEIYLSGIDFYQNGSSYAFDTKQKNLLKLAPNFKNDNSHYIGHSKNTDIKALEFLEKTYKIKLYCLCPNSLLANFIELAPNLNSNFIIQEKNNYTKDILIPSSEAYGKFSKNINFGGGHMLKKIKKALFQPKKFFQDSMWLTTSPFYLTPPRNNLFVISNLGQLNQVQSLIKIQKLTNNLLVILYTSKNLKMPKLVHQSANKNLFESIYLFELPRSPNNITPKKLLYIYRSYKKILNIIQPAHLYMLSFTGHYSYLISIAKKKNITTHLIDEGTGTYAPLLESFSYHPTKLERNLIGNNLNIKGYIDHFDILHVPFPEYAKKIFNAKKYNRFFAHAGGISINNNIANLQKKYQISKNDYIFVSQRYPISDDLYYKSIVEILNSISLQIKGKIFIKLHPKEMGNNYVMSLFLNMVEINPRLVVINEPPFLIEPLIYLTNPKGIIGLASSSLIYTPLLSPSTQCLSIGELIINLIQKYSMVENTEMIQEHLEIIKKFNFINILNDLNGVISNPLFKTEETFETLLKSAEFAYKSKNYFQAIFYWQLASKNNITLLGHKALWYYNALYNVKQIYKMEYSDIFYIDNISVDFHSKDKLTWEKIKHYYYFADNRIGRDR
substrate converted into product ([4]; 20° C. supernatant, 37° C. for 10 min): 9% | Activity ([4]; 20° C., P (pellet)): 3.270 mU/mL | Specific Activity ([4]; 20° C., P (pellet)): 8.959 | Percent GM3 ([4]; 20° C., P (pellet)): 98% | Activity ([4]; 20° C., S (supernatant)): 5.570 mU/mL | Specific Activity ([4]; 20° C., S (supernatant)): 2.637 | Percent GM3 ([4]; 20° C., S (supernatant)): 88% | Activity ([4]; 25° C., P (pellet)): 9.329 mU/mL | Specific Activity ([4]; 25° C., P (pellet)): 11.945 | Percent GM3 ([4]; 25° C., P (pellet)): 59% | Activity ([4]; 25° C., S (supernatant)): 8.192 mU/mL | Specific Activity ([4]; 25° C., S (supernatant)): 3.378 | Percent GM3 ([4]; 25° C., S (supernatant)): 67% | Activity ([4]; 30° C., P (pellet)): 13.355 mU/mL | Specific Activity ([4]; 30° C., P (pellet)): 15.228 | Percent GM3 ([4]; 30° C., P (pellet)): 51% | Activity ([4]; 30° C., S (supernatant)): 3.976 mU/mL | Specific Activity ([4]; 30° C., S (supernatant)): 1.893 | Percent GM3 ([4]; 30° C., S (supernatant)): 58% | formation of long sialic acid polymers ([5]; CE analysis): formation of long polymers happens from the earliest time points | amount of polysialic acid relative to all other sialylated species ([5]; Lac-FCHASE acceptor, FIG. 5): about 50% | Lac-FCHASE consumed [6]: essentially all | T-Ag material consumed [6]: 72% | conversion to sialylated product ([7]; 1 hour incubation at 37° C.): 49.9% | conversion to sialylated product ([7]; 2 hours at 37° C.): 62.5% | sialic acid residues on products ([7]; CE analysis, FIG. 8): more than 45 | polysialic acid product relative to the combination of unfused parent enzymes [8]: four times as much | polysialic acid product (PSA) ([8]; 4 μM enzyme): 17%
